Experimental data from patent publication US20120316071A1 (published 2012).
Residue numbers refer to the chain shown, from its start. Names may count otherwise. Values belong to the binder of their own block, whether it stands above or below them.

How the values were obtained:
[1] = target: T1, Recombinant Human DLL4 (delta-like protein 4) (human, UniProt Q9NR61 27-524); assay: ELISA on coated DLL4, Fab at 25 nM (2-fold serial dilution)
T1 construct: also called rHuman DLL4; Delta-like 4

[2] = target: T1, Recombinant Human DLL4 (delta-like …); assay: ELISA on coated DLL4, Fab at 50 nM (2-fold serial dilution)
[3] = target: T1, Recombinant Human DLL4 (delta-like …); assay: ELISA on coated DLL4, Fab at 100 nM (2-fold serial dilution)
[4] = target: T1, Recombinant Human DLL4 (delta-like …); assay: ELISA on coated DLL4, Fab at 12.5 nM (2-fold serial dilution)
[5] = target: T1, Recombinant Human DLL4 (delta-like …); assay: ELISA on coated DLL4, Fab at 6.25 nM (2-fold serial dilution)
[6] = target: T1, Recombinant Human DLL4 (delta-like …); assay: ELISA on coated DLL4, Fab at 3.125 nM (2-fold serial dilution)
[7] = target: T2, Recombinant Human DLL4 (delta-like protein 4) (human, UniProt Q9NR61 27-524); assay: ECL (Meso Scale Discovery) binding assay on immobilised recombinant human DLL4; Fab concentration not given
T2 construct: Bought recombinant protein (R&D Systems Cat#1506-D4/CF); also called rHuman DLL4; Delta-like 4

ELISA signal [1]: 0.232
ELISA signal [2]: 0.232
ELISA signal [3]: 0.271
ELISA signal [4]: 0.244
ELISA signal [5]: 0.245
ELISA signal [6]: 0.251
B1: Fab VH5-51_IGHD5-18*01>3_IGHJ4*01 G100K/G104T G35V & V3-4_IGLJ1*01 (Fab, V domains shown)
VH: EVQLVQSGAEVKKPGESLKISCKGSGYSFTSYWIVWVRQMPGKGLEWMGIIYPGDSDTRYSPSFQGQVTISADKSISTAYLQWSSLKASDTAMYYCARRKYSYTYDYFDYWGQGTLVTVSS
VL: QTVVTQEPSFSVSPGGTVTLTCGLSSGSVSTSYYPSWYQQTPGQAPRTLIYSTNTRSSGVPDRFSGSILGNKAALTITGAQADDESDYYCVLYMGSGISYVFGTGTKVTVL
notes: Fab; also called H:KT G35V & L:parent

ECL signal [7]: 9360
B2: Fab VH5-51_IGHD5-18*01>3_IGHJ4*01 G100K/G104T (H:KT) & V3-4_IGLJ1*01 (Fab, V domains shown)
VH: B1 VH with V35G
VL: B1 VL
notes: Tested as Fab made in E. coli: VH joined to CH1 (Plasmid A, His and Flag tags), VL joined to lambda CL (Plasmid E); also called H:KT & L:wt; KT double mutant

ECL signal [7]: 17800
B3: Fab VH5-51_IGHD5-18*01>3_IGHJ4*01 G100K/G104T (H:KT) & V3-4_IGLJ1*01 G23A, N175K (Fab, V domains shown)
VH: B1 VH with V35G
VL: QTVVTQEPSFSVSPGGTVTLTCALSSGSVSTSYYPSWYQQTPGQAPRTLIYSTNTRSSGVPDRFSGSILGNKAALTITGAQADDESDYYCVLYMGSGISYVFGTGTKVTVLG
notes: also called G100K/G104T & G23A/N175K

ELISA signal [1]: 0.365
ELISA signal [2]: 0.456
ELISA signal [3]: 0.529
ELISA signal [4]: 0.309
ELISA signal [5]: 0.303
ELISA signal [6]: 0.246
B4: Fab VH5-51_IGHD5-18*01>3_IGHJ4*01 G100K/G104T S28R & V3-4_IGLJ1*01 (Fab, V domains shown)
VH: B1 VH with S28R, V35G
VL: B1 VL
notes: Fab; also called H:KT S28R & L:parent; H:KT S28R & L:wt

ECL signal [7]: 10600
B5: Fab VH5-51_IGHD5-18*01>3_IGHJ4*01 G100K/G104T (H:KT) & V3-4_IGLJ1*01 T78E (Fab, V domains shown)
VH: B1 VH with V35G
VL: B1 VL with T78E
notes: Fab with CH1 and lambda CL from the expression plasmids; also called G100K/G104T & T78E

ELISA signal [1]: 0.218
ELISA signal [2]: 0.23
ELISA signal [3]: 0.219
ELISA signal [4]: 0.223
ELISA signal [5]: 0.224
ELISA signal [6]: 0.252
B6: Fab VH5-51_IGHD5-18*01>3_IGHJ4*01 G100K/G104T T58D & V3-4_IGLJ1*01 (Fab, V domains shown)
VH: B1 VH with V35G, T58D
VL: B1 VL
notes: Fab; also called H:KT T58D & L:parent

ELISA signal [1]: 0.22
ELISA signal [2]: 0.209
ELISA signal [3]: 0.253
ELISA signal [4]: 0.23
ELISA signal [5]: 0.249
ELISA signal [6]: 0.244
B7: Fab VH5-51_IGHD5-18*01>3_IGHJ4*01 G100K/G104T T58A & V3-4_IGLJ1*01 (Fab, V domains shown)
VH: B1 VH with V35G, T58A
VL: B1 VL
notes: Fab; also called H:KT T58A & L:parent

ECL signal [7]: 9830
B8: Fab VH5-51_IGHD5-18*01>3_IGHJ4*01 G100K/G104T (H:KT) & V3-4_IGLJ1*01 T78V (Fab, V domains shown)
VH: B1 VH with V35G
VL: B1 VL with T78V
notes: Fab with CH1 and lambda CL from the expression plasmids; also called G100K/G104T & T78V
